Assay results taken from PMC6599547 (Journal of molecular biology, 2019).

Molecular target: T1, N-terminally tagged soluble SARAF luminal domain, SP-XFP-SARAFL-R (SARAF(Δ165-339) with signal peptide and … (human, UniProt Q96BY9 31-164))
T1 sequence: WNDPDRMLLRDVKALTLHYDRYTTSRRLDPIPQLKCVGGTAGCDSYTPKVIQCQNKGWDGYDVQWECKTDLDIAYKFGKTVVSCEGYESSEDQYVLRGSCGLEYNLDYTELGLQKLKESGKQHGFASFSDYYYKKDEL
Experiment: FRET or BRET

B1: C-terminally tagged soluble SARAF luminal domain, SP-SARAFL-XFP-R (domain or fragment, human)
chain: WNDPDRMLLRDVKALTLHYDRYTTSRRLDPIPQLKCVGGTAGCDSYTPKVIQCQNKGWDGYDVQWECKTDLDIAYKFGKTVVSCEGYESSEDQYVLRGSCGLEYNLDYTELGLQKLKESGKQHGFASFSDYYYKTGRPACKIPNDLKQKVMNHKDEL
  FRET signal, fold over the pair with both fluorophores at the N-terminus: ~3 fold
